{"source": "patent WO2021212049A2", "target": "trimeric SARS-CoV-2 spike (residues 1-1213), 986PP987, furin sites disrupted, C-terminal foldon and hexahistidine tag (SARS-CoV-2) (UniProt P0DTC2)"}
{"substance": "2B04 Fab (papain-cleaved Fab form of 2B04)", "values": [{"measurement": "total buried surface area of the complex", "value": 656, "unit": "Å2"}]}
